Assay results published in patent US20210077638A1.

How the values were obtained:
[1] = target: hMET.mmh (human) (UniProt P08581); experiment: SPR Biacore T-200, antibody captured by anti-human Fc, 90 nM hMET.mmh, 25 C (second run)
[2] = target: human MET on EBC-1, NCI-H441 and NCI-H358 cells (human) (UniProt P08581); experiment: cell binding assay on EBC-1 cells, n=1, gamma counting

| Antigen Bound [1] | IR (%) (immunoreactivity, percent of activity bound to cells) [2] | Substance |
| --- | --- | --- |
| -1.46 RU/nm | – | Non-binding isotype Control (antibody) |
| – | 2.8% | non-specific DFO-Ab radioimmunoconjugate (antibody) |
